In patent US20190083615A1:

Target: cynomolgous monkey LAG3 expressed on cells (cynomolgous monkey)
Experiment: cell based KinExA, BaF/3 cells transfected with cynomolgus LAG3 (n=2)

Chain of cynomolgous monkey LAG3 expressed on cells (cynomolgous monkey) (P18627 other isoform, or with tags, fused parts or gaps limits assumed): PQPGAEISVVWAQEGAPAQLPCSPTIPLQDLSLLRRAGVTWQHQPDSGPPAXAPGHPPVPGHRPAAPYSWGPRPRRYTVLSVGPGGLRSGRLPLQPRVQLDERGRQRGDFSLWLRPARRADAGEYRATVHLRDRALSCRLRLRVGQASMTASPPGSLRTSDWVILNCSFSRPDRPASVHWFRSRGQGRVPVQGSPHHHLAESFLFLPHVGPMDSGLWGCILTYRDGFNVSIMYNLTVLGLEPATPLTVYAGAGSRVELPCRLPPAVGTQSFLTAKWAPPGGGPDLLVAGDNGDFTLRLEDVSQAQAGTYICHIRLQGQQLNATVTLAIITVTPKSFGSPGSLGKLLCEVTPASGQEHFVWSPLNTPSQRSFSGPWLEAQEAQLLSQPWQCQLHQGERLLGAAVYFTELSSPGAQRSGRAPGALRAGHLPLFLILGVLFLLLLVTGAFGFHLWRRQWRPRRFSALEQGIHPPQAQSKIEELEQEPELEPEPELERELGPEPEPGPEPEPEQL

B1: 22D2 chimera: chimeric antibody [LAG3_H] mAb (LB145.22D2.E1.D1 (VH0/VL0) Geneart) IgG4 S228P/kappa (PX) (antibody, V domains shown)
VH: EVLLLQSGPELVKPGTSVKIPCKASGYTFTDYNVDWVKQRHGKGLEWIGDINPNNGGTIYSQKFKGKATLTVDKSSSTAFMELRSLTSEDTAVYFCARNYRWFGAMDHWGQGTSVTVSS
VL: DIVLTQSPASLAVSPGQRATISCKASQSLDYEGDSDMNWYQQKPGQPPRLLISGASNLESGIPARFSGSGSGTDFTVNIHPVEEEDAATYYCQQSTEDPRTFGGGTKLEIK
Binder B1 has a Kd of 0.011 nM.
